Test results reported in the supplement of paper PMC11246515.
± gives the standard deviation of the averaged measurements.

Test: total protein half-life in vivo (active degradation + dilution); higher = more stable protein
[1] = E. coli NCM3722 delta-clpP delta-lon delta-hslV, growth: N-lim chemostat, doubling time 6 h
[2] = E. coli NCM3722 delta-hslV, growth: N-lim chemostat, doubling time 6 h
[3] = E. coli NCM3722 delta-smpB, growth: N-lim chemostat, doubling time 6 h
[4] = wild type E. coli NCM3722, growth: C-lim chemostat, doubling time 3 h
[5] = wild type E. coli NCM3722, growth: C-lim chemostat, doubling time 6 h
[6] = wild type E. coli NCM3722, growth: C-lim chemostat, doubling time 12 h
[7] = wild type E. coli NCM3722, growth: N-lim chemostat, doubling time 6 h
[8] = wild type E. coli NCM3722, growth: N-lim chemostat, doubling time 12 h
[9] = wild type E. coli NCM3722, growth: P-lim chemostat, doubling time 6 h
[10] = wild type E. coli NCM3722, growth: P-lim chemostat, doubling time 12 h
[11] = E. coli NCM3722 delta-lon, growth: N-lim chemostat, doubling time 6 h
[12] = E. coli NCM3722 delta-clpP, growth: N-lim chemostat, doubling time 6 h

Sequence: MSNNEFHQRRLSATPRGVGVMCNFFAQSAENATLKDVEGNEYIDFAAGIAVLNTGHRHPDLVAAVEQQLQQFTHTAYQIVPYESYVTLAEKINALAPVSGQAKTAFFTTGAEAVENAVKIARAHTGRPGVIAFSGGFHGRTYMTMALTGKVAPYKIGFGPFPGSVYHVPYPSDLHGISTQDSLDAIERLFKSDIEAKQVAAIIFEPVQGEGGFNVAPKELVAAIRRLCDEHGIVMIADEVQSGFARTGKLFAMDHYADKPDLMTMAKSLAGGMPLSGVVGNANIMDAPAPGGLGGTYAGNPLAVAAAHAVLNIIDKESLCERANQLGQRLKNTLIDAKESVPAIAAVRGLGSMIAVEFNDPQTGEPSAAIAQKIQQRALAQGLLLLTCGAYGNVIRFLYPLTIPDAQFDAAMKILQDALSD
- total protein half-life in vivo [1]: 3.77 ± 0.53 h
- total protein half-life in vivo [2]: 1 h
- total protein half-life in vivo [3]: 0.902 ± 0.068 h
- total protein half-life in vivo [4]: 2.883 ± 0.027 h
- total protein half-life in vivo [5]: 2.81 ± 0.47 h
- total protein half-life in vivo [6]: 4.33 ± 0.44 h
- total protein half-life in vivo [7]: 1.25 h
- total protein half-life in vivo [8]: 1.67 h
- total protein half-life in vivo [9]: 3.46 ± 0.35 h
- total protein half-life in vivo [10]: 5.88 ± 0.5 h

Sequence: MVDQAQDTLRPNNRLSDMQATMEQTQAFENRVLERLNAGKTVRSFLITAVELLTEAVNLLVLQVFRKDDYAVKYAVEPLLDGDGPLGDLSVRLKLIYGLGVINRQEYEDAELLMALREELNHDGNEYAFTDDEILGPFGELHCVAALPPPPQFEPADSSLYAMQIQRYQQAVRSTMVLSLTELISKISLKKAFQK [P0AF10]
- total protein half-life in vivo [1]: 4.34 ± 0.54 h
- total protein half-life in vivo [11]: 4.01 h
- total protein half-life in vivo [3]: 3.44 h
- total protein half-life in vivo [4]: 2.48 ± 0.33 h
- total protein half-life in vivo [5]: 4.42 ± 0.24 h
- total protein half-life in vivo [6]: 12.5 ± 1.4 h
- total protein half-life in vivo [7]: 3.54 h
- total protein half-life in vivo [8]: 5.95 ± 0.25 h
- total protein half-life in vivo [9]: 4.55 h
- total protein half-life in vivo [10]: 12.2 ± 2 h

Sequence: MWQAISRLLSEQLGEGEIELRNELPGGEVHAAWHLRYAGHDFFVKCDERELLPGFTAEADQLELLSRSKTVTVPKVWAVGADRDYSFLVMDYLPPRPLDAHSAFILGQQIARLHQWSDQPQFGLDFDNALSTTPQPNTWQRRWSTFFAEQRIGWQLELAAEKGIAFGNIDAIVEHIQQRLASHQPQPSLLHGDLWSGNCALGPDGPYIFDPACYWGDRECDLAMLPLHTEQPPQIYDGYQSVSPLPADFLERQPVYQLYTLLNRARLFGGQHLVIAQQSLDRLLAA
- total protein half-life in vivo [1]: 4.14 ± 0.66 h
- total protein half-life in vivo [12]: 3.457 ± 0.023 h
- total protein half-life in vivo [2]: 3.84 ± 0.5 h
- total protein half-life in vivo [11]: 3.77 ± 0.099 h
- total protein half-life in vivo [3]: 3.3 ± 0.13 h
- total protein half-life in vivo [4]: 3.159 ± 0.0069 h
- total protein half-life in vivo [5]: 5.21 ± 0.11 h
- total protein half-life in vivo [6]: 9.56 ± 0.57 h
- total protein half-life in vivo [7]: 3.31 ± 0.31 h
- total protein half-life in vivo [8]: 5.08 ± 0.18 h
- total protein half-life in vivo [9]: 5.685 ± 0.017 h
- total protein half-life in vivo [10]: 11.2 ± 0.46 h

Sequence: MSSYANHQALAGLTLGKSTDYRDTYDASLLQGVPRSLNRDPLGLKADNLPFHGTDIWTLYELSWLNAKGLPQVAVGHVELDYTSVNLIESKSFKLYLNSFNQTRFNNWDEVRQTLERDLSTCAQGKISVALYRLDELEGQPIGHFNGTCIDDQDITIDNYEFTTDYLENATCGEKVVEETLVSHLLKSNCLITHQPDWGSLQIQYRGRQIDREKLLRYLVSFRHHNEFHEQCVERIFNDLLRFCQPEKLSVYARYTRRGGLDINPWRSNSDFVPSTTRLVRQ
- total protein half-life in vivo [1]: 5.36 ± 0.64 h
- total protein half-life in vivo [12]: 5.85 ± 1.8 h
- total protein half-life in vivo [2]: 5 ± 0.28 h
- total protein half-life in vivo [11]: 4.54 ± 0.56 h
- total protein half-life in vivo [3]: 4.09 ± 0.3 h
- total protein half-life in vivo [4]: 2.81 ± 0.26 h
- total protein half-life in vivo [5]: 5.542 ± 0.011 h
- total protein half-life in vivo [6]: 8.79 ± 1.1 h
- total protein half-life in vivo [7]: 4.41 ± 0.24 h
- total protein half-life in vivo [8]: 7.06 ± 0.16 h
- total protein half-life in vivo [9]: 5.622 ± 0.049 h
- total protein half-life in vivo [10]: 10.92 ± 0.053 h

Sequence: MDKIEVRGARTHNLKNINLVIPRDKLIVVTGLSGSGKSSLAFDTLYAEGQRRYVESLSAYARQFLSLMEKPDVDHIEGLSPAISIEQKSTSHNPRSTVGTITEIHDYLRLLFARVGEPRCPDHDVPLAAQTVSQMVDNVLSQPEGKRLMLLAPIIKERKGEHTKTLENLASQGYIRARIDGEVCDLSDPPKLELQKKHTIEVVVDRFKVRDDLTQRLAESFETALELSGGTAVVADMDDPKAEELLFSANFACPICGYSMRELEPRLFSFNNPAGACPTCDGLGVQQYFDPDRVIQNPELSLAGGAIRGWDRRNFYYFQMLKSLADHYKFDVEAPWGSLSANVHKVVLYGSGKENIEFKYMNDRGDTSIRRHPFEGVLHNMERRYKETESSAVREELAKFISNRPCASCEGTRLRREARHVYVENTPLPAISDMSIGHAMEFFNNLKLAGQRAKIAEKILKEIGDRLKFLVNVGLNYLTLSRSAETLSGGEAQRIRLASQIGAGLVGVMYVLDEPSIGLHQRDNERLLGTLIHLRDLGNTVIVVEHDEDAIRAADHVIDIGPGAGVHGGEVVAEGPLEAIMAVPESLTGQYMSGKRKIEVPKKRVPANPEKVLKLTGARGNNLKDVTLTLPVGLFTCITGVSGSGKSTLINDTLFPIAQRQLNGATIAEPAPYRDIQGLEHFDKVIDIDQSPIGRTPRSNPATYTGVFTPVRELFAGVPESRARGYTPGRFSFNVRGGRCEACQGDGVIKVEMHFLPDIYVPCDQCKGKRYNRETLEIKYKGKTIHEVLDMTIEEAREFFDAVPALARKLQTLMDVGLTYIRLGQSATTLSGGEAQRVKLARELSKRGTGQTLYILDEPTTGLHFADIQQLLDVLHKLRDQGNTIVVIEHNLDVIKTADWIVDLGPEGGSGGGEILVSGTPETVAECEASHTARFLKPML [P0A698]
- total protein half-life in vivo [1]: 6.85 ± 0.08 h
- total protein half-life in vivo [12]: 6.52 ± 0.27 h
- total protein half-life in vivo [2]: 6.32 ± 0.14 h
- total protein half-life in vivo [11]: 6.4 ± 0.084 h
- total protein half-life in vivo [3]: 5.66 ± 0.51 h
- total protein half-life in vivo [4]: 3.21 ± 0.095 h
- total protein half-life in vivo [5]: 6.19 ± 0.7 h
- total protein half-life in vivo [6]: 12.1 ± 0.6 h
- total protein half-life in vivo [7]: 6.24 ± 0.3 h
- total protein half-life in vivo [8]: 12.7 ± 0.13 h
- total protein half-life in vivo [9]: 6.273 ± 0.06 h
- total protein half-life in vivo [10]: 13.6 ± 0.84 h

Sequence: MLNLFVGLDIYTGLLLLLALAFVLFYEAINGFHDTANAVAAVIYTRAMQPQLAVVMAAFFNFFGVLLGGLSVAYAIVHMLPTDLLLNMGSTHGLAMVFSMLLAAIIWNLGTWFFGLPASSSHTLIGAIIGIGLTNALLTGSSVMDALNLREVTKIFSSLIVSPIVGLVIAGGLIFLLRRYWSGTKKRDRIHRIPEDRKKKKGKRKPPFWTRIALIVSAAGVAFSHGANDGQKGIGLVMLVLVGIAPAGFVVNMNASGYEITRTRDAVTNFEHYLQQHPELPQKLIAMEPPLPAASTDGTQVTEFHCHPANTFDAIARVKTMLPGNMESYEPLSVSQRSQLRRIMLCISDTSAKLAKLPGVSKEDQNLLKKLRSDMLSTIEYAPVWIIMAVALALGIGTMIGWRRVAMTIGEKIGKRGMTYAQGMAAQMTAAVSIGLASYIGMPVSTTHVLSSAVAGTMVVDGGGLQRKTVTSILMAWVFTLPAAIFLSGGLYWIALQLI
- total protein half-life in vivo [1]: 6.37 h
- total protein half-life in vivo [12]: 5.68 h
- total protein half-life in vivo [3]: 5.61 ± 0.43 h
- total protein half-life in vivo [7]: 6.47 h
- total protein half-life in vivo [9]: 6.03 ± 0.27 h
- total protein half-life in vivo [10]: 13.1 h

Sequence: MIKKIGVLTSGGDAPGMNAAIRGVVRSALTEGLEVMGIYDGYLGLYEDRMVQLDRYSVSDMINRGGTFLGSARFPEFRDENIRAVAIENLKKRGIDALVVIGGDGSYMGAMRLTEMGFPCIGLPGTIDNDIKGTDYTIGFFTALSTVVEAIDRLRDTSSSHQRISVVEVMGRYCGDLTLAAAIAGGCEFVVVPEVEFSREDLVNEIKAGIAKGKKHAIVAITEHMCDVDELAHFIEKETGRETRATVLGHIQRGGSPVPYDRILASRMGAYAIDLLLAGYGGRCVGIQNEQLVHHDIIDAIENMKRPFKGDWLDCAKKLY [P0A796]
- total protein half-life in vivo [1]: 4.43 ± 0.51 h
- total protein half-life in vivo [12]: 3.9 ± 0.11 h
- total protein half-life in vivo [2]: 4.03 ± 0.12 h
- total protein half-life in vivo [11]: 4.146 ± 0.0074 h
- total protein half-life in vivo [3]: 3.89 ± 0.13 h
- total protein half-life in vivo [4]: 3 ± 0.15 h
- total protein half-life in vivo [5]: 5.83 ± 0.099 h
- total protein half-life in vivo [6]: 10.3 ± 0.71 h
- total protein half-life in vivo [7]: 3.64 ± 0.18 h
- total protein half-life in vivo [8]: 5.77 ± 0.15 h
- total protein half-life in vivo [9]: 5.69 ± 0.36 h
- total protein half-life in vivo [10]: 11.7 ± 0.9 h

Sequence: MRLFAQLSWYFRREWRRYLGAVALLVIIAMLQLVPPKVVGIVVDGVTEQHFTTGQILMWIATMVLIAVVVYLLRYVWRVLLFGASYQLAVELREDYYRQLSRQHPEFYLRHRTGDLMARATNDVDRVVFAAGEGVLTLVDSLVMGCAVLIMMSTQISWQLTLFSLLPMPVMAIMIKRNGDALHERFKLAQAAFSSLNDRTQESLTSIRMIKAFGLEDRQSALFAADAEDTGKKNMRVARIDARFDPTIYIAIGMANLLAIGGGSWMVVQGSLTLGQLTSFMMYLGLMIWPMLALAWMFNIVERGSAAYSRIRAMLAEAPVVNDGSEPVPEGRGELDVNIHQFTYPQTDHPALENVNFALKPGQMLGICGPTGSGKSTLLSLIQRHFDVSEGDIRFHDIPLTKLQLDSWRSRLAVVSQTPFLFSDTVANNIALGCPNATQQEIEHVARLASVHDDILRLPQGYDTEVGERGVMLSGGQKQRISIARALLVNAEILILDDALSAVDGRTEHQILHNLRQWGQGRTVIISAHRLSALTEASEIIVMQHGHIAQRGNHDVLAQQSGWYRDMYRYQQLEAALDDAPENREEAVDA
- total protein half-life in vivo [1]: 6.33 ± 0.2 h
- total protein half-life in vivo [12]: 6.624 ± 0.017 h
- total protein half-life in vivo [2]: 5.58 ± 1.5 h
- total protein half-life in vivo [11]: 4.42 ± 0.37 h
- total protein half-life in vivo [3]: 4.26 ± 0.096 h
- total protein half-life in vivo [5]: 4.99 ± 0.061 h
- total protein half-life in vivo [6]: 11.1 ± 1.6 h
- total protein half-life in vivo [7]: 4.77 ± 0.67 h
- total protein half-life in vivo [8]: 7.121 ± 0.033 h
- total protein half-life in vivo [9]: 6.08 ± 0.52 h
- total protein half-life in vivo [10]: 11.6 ± 3.3 h

Sequence: MLRIADKTFDSHLFTGTGKFASSQLMVEAIRASGSQLVTLAMKRVDLRQHNDAILEPLIAAGVTLLPNTSGAKTAEEAIFAAHLAREALGTNWLKLEIHPDARWLLPDPIETLKAAETLVQQGFVVLPYCGADPVLCKRLEEVGCAAVMPLGAPIGSNQGLETRAMLEIIIQQATVPVVVDAGIGVPSHAAQALEMGADAVLVNTAIAVADDPVNMAKAFRLAVEAGLLARQSGPGSRSYFAHATSPLTGFLEASA
- total protein half-life in vivo [1]: 2.21 ± 0.21 h
- total protein half-life in vivo [12]: 1.09 ± 0.22 h
- total protein half-life in vivo [2]: 0.8075 ± 0.0064 h
- total protein half-life in vivo [11]: 1.093 ± 0.0074 h
- total protein half-life in vivo [3]: 0.844 ± 0.015 h
- total protein half-life in vivo [4]: 1.59 ± 0.079 h
- total protein half-life in vivo [5]: 1.61 ± 0.17 h
- total protein half-life in vivo [6]: 1.81 ± 0.88 h
- total protein half-life in vivo [7]: 0.928 ± 0.09 h
- total protein half-life in vivo [8]: 1.067 ± 0.0049 h
- total protein half-life in vivo [9]: 2.01 ± 0.17 h
- total protein half-life in vivo [10]: 3.07 ± 0.59 h
